According to patent US20240360223A1 (DRAGONFLY THERAPEUTICS, published 2024):

B1: Ianalumab-2-Fab (bispecific antibody, human IgG1, kappa)
heavy 1: not shown
light 1: DIVLTQSPATLSLSPGERATLSCRASQFILPEYLSWYQQKPGQAPRLLIYGSSSRATGVPARFSGSGSGTDFTLTISSLEPEDFAVYYCQQFYSSPLTFGQGTKVEIKRTVAAPSVFIFPPSDEQLKSGTASVVCLLNNFYPREAKVQWKVDNALQSGNSQESVTEQDSKDSTYSLSSTLTLSKADYEKHKVYACEVTHQGLSSPVTKSFNRGEC
heavy 2: not shown
light 2: DIQMTQSPSSVSASVGDRVTITCRASQGISSWLAWYQQKPGKAPKLLIYAASSLQSGVPSRFSGSGSGTDFTLTISSLQPEDFATYYCQQGVSFPRTFGGGTKVEIKRTVAAPSVFIFPPSDEQLKSGTASVVCLLNNFYPREAKVQWKVDNALQSGNSQESVTEQDSKDSTYSLSSTLTLSKADYEKHKVYACEVTHQGLSSPVTKSFNRGEC
notes: 2-Fab TriNKET: BAFF-R Fab arm and NKG2D (A49MI) Fab arm, F405L/K409R Fc
B2: Hu9.1-73-2-Fab (bispecific antibody, human IgG1, kappa)
heavy 1: not shown
light 1: DIQMTQSPSSLSASVGDRVTITCKSSQSLLYSSNQNNYLAWYQQKPGKAPKLLIYWAQHLDSGVPSRFSGSGSGTDFTLTISSLQPEDFATYYCQQYYTYPYTFGQGTKVEIKRTVAAPSVFIFPPSDEQLKSGTASVVCLLNNFYPREAKVQWKVDNALQSGNSQESVTEQDSKDSTYSLSSTLTLSKADYEKHKVYACEVTHQGLSSPVTKSFNRGEC
heavy 2: not shown
light 2: B1 light 2
notes: 2-Fab TriNKET
B3: hCOH-2-F3′ (bispecific antibody, human IgG1, kappa)
chain: DIVLTQSPATLSLSPGERATLSCRASESVDNYGISFMNWFQQKPGQAPRLLIYAASNRATGIPARFSGSGSGTDFTLTISSLEPEDFAVYYCQQSKEVPWTFGCGTKVEIKGGGGSGGGGSGGGGSGGGGSEVQLQESGPGLVKPSQTLSLTCTVSGDSITSGYWNWIRQHPGKCLEYIGYISYSGSTYYNPSLKSRVTISRDTSKNQYSLKLSSVTAADTAVYYCASPNYPFYAMDYWGQGTLVTVSSASDKTHTCPPCPAPELLGGPSVFLFPPKPKDTLMISRTPEVTCVVVDVSHEDPEVKFNWYVDGVEVHNAKTKPREEQYNSTYRVVSVLTVLHQDWLNGKEYKCKVSNKALPAPIEKTISKAKGQPREPRVYTLPPCRDELTKNQVSLTCLVKGFYPSDIAVEWESNGQPENNYKTTPPVLVSDGSFTLYSKLTVDKSRWQQGNVFSCSVMHEALHNHYTQKSLSLSPG
heavy: EVQLVESGGGLVKPGGSLRLSCAASGFTFSSYSMNWVRQAPGKGLEWVSSISSSSSYIYYADSVKGRFTISRDNAKNSLYLQMNSLRAEDTAVYYCARGAPIGAAAGWFDPWGQGTLVTVSSASTKGPSVFPLAPSSKSTSGGTAALGCLVKDYFPEPVTVSWNSGALTSGVHTFPAVLQSSGLYSLSSVVTVPSSSLGTQTYICNVNHKPSNTKVDKKVEPKSCDKTHTCPPCPAPELLGGPSVFLFPPKPKDTLMISRTPEVTCVVVDVSHEDPEVKFNWYVDGVEVHNAKTKPREEQYNSTYRVVSVLTVLHQDWLNGKEYKCKVSNKALPAPIEKTISKAKGQPREPQVCTLPPSRDELTENQVSLTCLVKGFYPSDIAVEWESNGQPENNYKTTPPVLDSDGSFFLYSWLTVDKSRWQQGNVFSCSVMHEALHNHYTQKSLSLSPG
light: B1 light 2
notes: F3′ TriNKET
B4: Hu9.1-73-F3′ (bispecific antibody, human IgG1, kappa)
chain: DIQMTQSPSSLSASVGDRVTITCKSSQSLLYSSNQNNYLAWYQQKPGKAPKLLIYWAQHLDSGVPSRFSGSGSGTDFTLTISSLQPEDFATYYCQQYYTYPYTFGCGTKVEIKGGGGSGGGGSGGGGSGGGGSEVQLVESGGGLVQPGGSLRLSCAASGLPMAGFYTSWVRQAPGKCLEWVGFIRDKANGYTTEYNPSVKGRFTISADTSKNTAYLQMNSLRAEDTAVYYCAQVRRALDYWGQGTLVTVSSASDKTHTCPPCPAPELLGGPSVFLFPPKPKDTLMISRTPEVTCVVVDVSHEDPEVKFNWYVDGVEVHNAKTKPREEQYNSTYRVVSVLTVLHQDWLNGKEYKCKVSNKALPAPIEKTISKAKGQPREPRVYTLPPCRDELTKNQVSLTCLVKGFYPSDIAVEWESNGQPENNYKTTPPVLVSDGSFTLYSKLTVDKSRWQQGNVFSCSVMHEALHNHYTQKSLSLSPG
heavy: B3 heavy
light: B1 light 2
notes: F3′ TriNKET; also called Hu9.1-73-F3′ TriNKET
B5: hCOH-2-2-Fab (bispecific antibody, human IgG1, kappa)
heavy 1: not shown
light 1: DIVLTQSPATLSLSPGERATLSCRASESVDNYGISFMNWFQQKPGQAPRLLIYAASNRATGIPARFSGSGSGTDFTLTISSLEPEDFAVYYCQQSKEVPWTFGGGTKVEIKRTVAAPSVFIFPPSDEQLKSGTASVVCLLNNFYPREAKVQWKVDNALQSGNSQESVTEQDSKDSTYSLSSTLTLSKADYEKHKVYACEVTHQGLSSPVTKSFNRGEC
heavy 2: not shown
light 2: B1 light 2
notes: 2-Fab TriNKET
B6: hCOH-2-mAb (antibody, V domains shown)
VH: EVQLQESGPGLVKPSQTLSLTCTVSGDSITSGYWNWIRQHPGKGLEYIGYISYSGSTYYNPSLKSRVTISRDTSKNQYSLKLSSVTAADTAVYYCASPNYPFYAMDYWGQGTLVTVSS
VL: DIVLTQSPATLSLSPGERATLSCRASESVDNYGISFMNWFQQKPGQAPRLLIYAASNRATGIPARFSGSGSGTDFTLTISSLEPEDFAVYYCQQSKEVPWTFGGGTKVEIK
notes: Parental monoclonal antibody; also called Humanized mAb hCOH-2
B7: Hu9.1-73-mAb (antibody, V domains shown)
VH: EVQLVESGGGLVQPGGSLRLSCAASGLPMAGFYTSWVRQAPGKGLEWVGFIRDKANGYTTEYNPSVKGRFTISADTSKNTAYLQMNSLRAEDTAVYYCAQVRRALDYWGQGTLVTVSS
VL: DIQMTQSPSSLSASVGDRVTITCKSSQSLLYSSNQNNYLAWYQQKPGKAPKLLIYWAQHLDSGVPSRFSGSGSGTDFTLTISSLQPEDFATYYCQQYYTYPYTFGQGTKVEIK
notes: Parental monoclonal antibody; also called Genentech Hu9.1-73 parental mAb
B8: AB0681 (bispecific antibody, V domains shown)
VH: EVQLVQSGGGVVQPGRSLRLSCAASGEWFSSYGMHWVRQAPGKCLEWVAVIWYDGSNKYYGDSVKGRFTISRDNSKNTLYLQMNSLRDEDTAVYYCARRFTHLRGWIIEDYGMDVWGQGTTVTVSS
VL: not shown
notes: also called AB0681-001

Molecular target: T1, human BAFF-R expressed on cells (human, UniProt Q96RJ3 1-184)
T1 construct: Cell surface BAFF-R, endogenous on B cell lines and primary B cells or overexpressed on isogenic CHO cells; also called hBAFF-R; hBAFF-R-CHO
Assay: flow cytometry, RAJI cells
Method: The BAFF-R positive human B lymphoblastoid RAJI cell line was used to assess TriNKET binding to cell surface BAFF-R. Certain BAFF-R TriNKETs in the 2-Fab and F3′ formats, as described in the “exemplary multispecific binding proteins” subsection above, were diluted and incubated with Raji cells. Binding patterns of TriNKETs and parental monoclonal antibodies were detected using a fluorophore conjugated anti-human IgG secondary antibody. The cells were then incubated with a fluorophore conjugated anti-human IgG secondary antibody and were analyzed by flow cytometry. The mean fluorescence intensity (MFI) values were normalized to secondary antibody only controls to obtain fold over background (FOB) values.

Row | EC50 [nM] | Binder
1 | 0.115 | B1
2 | 1.05 | B2
3 | 0.893 | B3
4 | 0.765 | B4
5 | 0.942 | B5
6 | 0.043 | B6
7 | 0.379 | B7

Molecular target: T2, cynomolgus monkey BAFF-R expressed on cells (cynomolgus monkey)
T2 construct: whole, on cells; also called cBAFF-R; cynoBAFF-R
Assay: flow cytometry, cyno BAFF-R CHO cells

Row | EC50 [nM] | Binder
8 | 5.6 | B8

Molecular target: T1, human BAFF-R expressed on cells
Assay: flow cytometry, human BAFF-R CHO cells

Row | EC50 [nM] | Binder
9 | 5.1 | B8
